Data: PMC2763353

Key:
Test in all cases: EMSA
[1] = target: Pax5(1-149) WT;GABPα(311-430);GABPβ1(1-157) (human;;, UniProt Q02548;Q00422;Q00420 1-149;311-430;1-157, ||)
[2] = target: Pax5(1-149) Q22A;Ets-1(280-440) (human;murine, UniProt Q02548;P27577 1-149;280-440, Q22A|)
[3] = target: Pax5(1-149) Q22A;Ets-1(331-440) (human;murine, UniProt Q02548;P27577 1-149;331-440, Q22A|)
[4] = target: Pax5(1-149) Q22A;GABPα(311-430);GABPβ1(1-157) (human;;, UniProt Q02548;Q00422;Q00420 1-149;311-430;1-157, Q22A||)
[5] = target: Pax5(1-149) Q22A;GABPα(311-430) (human;, UniProt Q02548;Q00422 1-149;311-430, Q22A|)
[6] = target: Pax5(1-149) WT;GABPα(311-430) (human;, UniProt Q02548;Q00422 1-149;311-430, |)
[7] = target: Pax5(1-149) WT;Ets-1(280-440) (human;murine, UniProt Q02548;P27577 1-149;280-440, |)
Ets-1(331-440) = target: T1, Ets-1(331-440) (murine, UniProt P27577 331-440)
T1 sequence: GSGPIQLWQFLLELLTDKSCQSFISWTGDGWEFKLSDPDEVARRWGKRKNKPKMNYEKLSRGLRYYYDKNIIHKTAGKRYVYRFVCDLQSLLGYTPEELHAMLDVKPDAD

[8] = target: Pax5(1-149) WT;Ets-1(331-440) (human;murine, UniProt Q02548;P27577 1-149;331-440, |)
Ets-1(280-440) = target: T2, Ets-1(280-440) (murine, UniProt P27577 280-440)
T2 sequence: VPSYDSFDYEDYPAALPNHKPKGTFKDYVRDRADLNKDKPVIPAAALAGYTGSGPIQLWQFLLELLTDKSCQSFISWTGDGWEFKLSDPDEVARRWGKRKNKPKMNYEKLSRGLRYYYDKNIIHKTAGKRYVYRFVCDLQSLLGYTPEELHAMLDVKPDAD

Pax5(1-149) WT = Pax5(1-149) WT (human, UniProt Q02548 1-149)
[9] = target: GABPα(311-430);GABPβ1(1-157) (;, UniProt Q00422;Q00420 311-430;1-157, |)
Pax5(1-149) Q22A = Pax5(1-149) Q22A (human, UniProt Q02548 1-149, Q22A)
Pax5(1-149) Q22A, sequence (Q02548 1-149 Q22A): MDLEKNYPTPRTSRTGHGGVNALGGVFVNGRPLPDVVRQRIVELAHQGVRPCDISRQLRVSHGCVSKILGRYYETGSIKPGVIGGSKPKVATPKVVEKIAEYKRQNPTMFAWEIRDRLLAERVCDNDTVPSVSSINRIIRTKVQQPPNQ

GABPα(311-430);GABPβ1(1-157), sequence (Q00422 311-430, chain 1 of 2): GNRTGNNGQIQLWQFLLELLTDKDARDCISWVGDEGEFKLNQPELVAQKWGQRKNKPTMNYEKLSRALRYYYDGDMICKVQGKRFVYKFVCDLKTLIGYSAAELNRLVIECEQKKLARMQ
GABPα(311-430);GABPβ1(1-157), sequence (Q00420 1-157, chain 2 of 2): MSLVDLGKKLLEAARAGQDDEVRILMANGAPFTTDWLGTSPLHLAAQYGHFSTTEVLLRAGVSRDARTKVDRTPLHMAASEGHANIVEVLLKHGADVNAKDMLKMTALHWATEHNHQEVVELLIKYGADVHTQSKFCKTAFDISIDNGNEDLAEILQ
Pax5(1-149) WT;GABPα(311-430), sequence (Q02548 1-149, chain 1 of 2): as the sequence (Q02548 1-149 Q22A) above, with A22Q counted along it
Pax5(1-149) WT;GABPα(311-430), sequence (Q00422 311-430, chain 2 of 2): as the sequence (Q00422 311-430, chain 1 of 2) above
Pax5(1-149) WT, sequence (Q02548 1-149): as the sequence (Q02548 1-149 Q22A) above, with A22Q counted along it
Pax5(1-149) WT;Ets-1(331-440), sequence (Q02548 1-149, chain 1 of 2, one chain of several): as the sequence (Q02548 1-149 Q22A) above, with A22Q counted along it
Pax5(1-149) WT;Ets-1(280-440), sequence (Q02548 1-149, chain 1 of 2, one chain of several): as the sequence (Q02548 1-149 Q22A) above, with A22Q counted along it
Pax5(1-149) WT;GABPα(311-430);GABPβ1(1-157), sequence (Q02548 1-149, chain 1 of 3): as the sequence (Q02548 1-149 Q22A) above, with A22Q counted along it
Pax5(1-149) WT;GABPα(311-430);GABPβ1(1-157), sequence (Q00422 311-430, chain 2 of 3): as the sequence (Q00422 311-430, chain 1 of 2) above
Pax5(1-149) WT;GABPα(311-430);GABPβ1(1-157), sequence (Q00420 1-157, chain 3 of 3): as the sequence (Q00420 1-157, chain 2 of 2) above
Pax5(1-149) Q22A;GABPα(311-430), sequence (Q02548 1-149 Q22A, chain 1 of 2): as the sequence (Q02548 1-149 Q22A) above
Pax5(1-149) Q22A;GABPα(311-430), sequence (Q00422 311-430, chain 2 of 2): as the sequence (Q00422 311-430, chain 1 of 2) above
Pax5(1-149) Q22A;GABPα(311-430);GABPβ1(1-157), sequence (Q02548 1-149 Q22A, chain 1 of 3): as the sequence (Q02548 1-149 Q22A) above
Pax5(1-149) Q22A;GABPα(311-430);GABPβ1(1-157), sequence (Q00422 311-430, chain 2 of 3): as the sequence (Q00422 311-430, chain 1 of 2) above
Pax5(1-149) Q22A;GABPα(311-430);GABPβ1(1-157), sequence (Q00420 1-157, chain 3 of 3): as the sequence (Q00420 1-157, chain 2 of 2) above
Pax5(1-149) Q22A;Ets-1(331-440), sequence (Q02548 1-149 Q22A, one chain of several): as the sequence (Q02548 1-149 Q22A) above
Pax5(1-149) Q22A;Ets-1(280-440), sequence (Q02548 1-149 Q22A, chain 1 of 2, one chain of several): as the sequence (Q02548 1-149 Q22A) above

B1: P5-EBS probe (dsDNA)
DNA 1: TCGAAGGGCCACTGGAGCCCATCTCCGGCACGGC
DNA 2: TCGAGCCGTGCCGGAGATGGGCTCCAGTGGCCCT
Kd [1]: 4.08 ± 0.38 nM | Kd [2]: 162 ± 44.3 nM | Kd [3]: 7.89 ± 0.76 nM | Kd [4]: 3.36 ± 0.14 nM | Kd [5]: 6.14 ± 5.38 nM | Kd [6]: 17.8 ± 0.74 nM | Kd [7]: 0.49 ± 0.05 nM | Kd (Ets-1(331-440)): 136 ± 5.29 nM | Kd [8]: 0.89 ± 0.14 nM | binding result (Ets-1(280-440)): no binding | Kd (Pax5(1-149) WT): 2.4 ± 0.47 nM | Kd [9]: 234 ± 24.8 nM | Kd (Pax5(1-149) Q22A): 1.72 ± 0.37 nM
